Data from US20070167369A1 (KYUNGPOOK NATIONAL UNIVERSITY INDUSTRY ACADEMIC COOPERATION …, published 2007).

Legend:
αvβ3 integrin [1] = biological target: T1, αvβ3 integrin (human, UniProt P06756 31-1048; P05106 27-788); assay: binding of His-tagged protein to HUVECs in 96-well plates, His-probe-HRP detection, Scatchard analysis
T1 construct: whole, on cells; On human umbilical vein endothelial cells (HUVECs); also called αvβ3 integrin of endothelial cells
Protocol: (§1) HUVECs (3×10⁴ cells/100 μl) were seeded in the 96-well plates and then incubated with increasing concentrations of each protein for 1 hour at room temperature. Cell binding of each protein was detected by His-probe-HRP antibody and quantified by measuring hexosaminidase.

αvβ3 integrin [2] = biological target: T1, αvβ3 integrin; assay: binding to HUVECs, Scatchard analysis (Example 16); reference: fas-1 domain (βig-h3 D-IV)
Protocol: as §1

T1 sequence (P06756 31-1048, chain 1 of 2): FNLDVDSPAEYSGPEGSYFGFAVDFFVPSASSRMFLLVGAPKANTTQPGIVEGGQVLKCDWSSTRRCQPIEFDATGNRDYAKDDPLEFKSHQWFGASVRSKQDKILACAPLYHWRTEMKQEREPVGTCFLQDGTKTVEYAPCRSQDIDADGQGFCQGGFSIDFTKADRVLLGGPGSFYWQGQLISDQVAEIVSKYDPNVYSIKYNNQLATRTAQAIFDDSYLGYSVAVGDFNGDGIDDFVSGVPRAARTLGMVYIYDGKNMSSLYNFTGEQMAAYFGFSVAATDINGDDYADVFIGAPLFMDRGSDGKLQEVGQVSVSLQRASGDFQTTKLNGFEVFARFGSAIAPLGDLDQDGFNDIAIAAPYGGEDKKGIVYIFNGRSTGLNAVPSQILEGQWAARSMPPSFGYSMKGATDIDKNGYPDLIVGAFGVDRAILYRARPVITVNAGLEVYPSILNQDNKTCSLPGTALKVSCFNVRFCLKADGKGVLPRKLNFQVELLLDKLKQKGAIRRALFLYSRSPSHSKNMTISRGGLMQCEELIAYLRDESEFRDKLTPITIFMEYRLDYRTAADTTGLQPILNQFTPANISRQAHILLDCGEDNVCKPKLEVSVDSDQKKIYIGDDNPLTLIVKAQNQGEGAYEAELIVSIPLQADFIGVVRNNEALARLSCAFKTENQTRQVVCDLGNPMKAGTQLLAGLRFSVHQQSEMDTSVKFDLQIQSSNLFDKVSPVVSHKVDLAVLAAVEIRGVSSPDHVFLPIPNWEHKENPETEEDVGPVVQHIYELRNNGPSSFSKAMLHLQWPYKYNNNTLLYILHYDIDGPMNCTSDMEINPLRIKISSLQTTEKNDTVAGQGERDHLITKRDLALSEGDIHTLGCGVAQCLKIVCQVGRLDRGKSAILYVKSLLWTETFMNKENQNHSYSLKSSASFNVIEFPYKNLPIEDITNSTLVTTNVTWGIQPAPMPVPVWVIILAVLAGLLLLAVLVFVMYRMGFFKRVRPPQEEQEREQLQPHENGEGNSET
T1 sequence (P05106 27-788, chain 2 of 2): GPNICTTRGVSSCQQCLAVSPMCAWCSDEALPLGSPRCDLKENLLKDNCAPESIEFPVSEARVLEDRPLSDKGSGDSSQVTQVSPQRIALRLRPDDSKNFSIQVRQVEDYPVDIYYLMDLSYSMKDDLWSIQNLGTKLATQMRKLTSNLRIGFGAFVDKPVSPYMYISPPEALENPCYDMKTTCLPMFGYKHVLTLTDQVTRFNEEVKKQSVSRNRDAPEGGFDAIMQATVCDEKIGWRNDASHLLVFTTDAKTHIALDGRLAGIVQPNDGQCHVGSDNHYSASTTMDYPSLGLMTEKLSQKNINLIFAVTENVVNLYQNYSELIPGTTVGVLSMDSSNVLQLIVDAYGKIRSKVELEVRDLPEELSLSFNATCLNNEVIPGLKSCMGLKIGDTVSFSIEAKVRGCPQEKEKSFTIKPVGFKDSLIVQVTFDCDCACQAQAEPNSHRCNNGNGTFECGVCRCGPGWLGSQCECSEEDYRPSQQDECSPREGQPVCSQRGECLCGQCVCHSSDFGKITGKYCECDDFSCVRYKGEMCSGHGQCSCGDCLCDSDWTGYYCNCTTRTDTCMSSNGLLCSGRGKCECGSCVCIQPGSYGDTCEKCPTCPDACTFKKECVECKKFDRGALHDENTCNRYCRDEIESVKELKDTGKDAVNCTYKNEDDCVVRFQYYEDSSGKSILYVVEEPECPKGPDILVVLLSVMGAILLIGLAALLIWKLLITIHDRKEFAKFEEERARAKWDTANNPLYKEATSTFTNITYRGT

B1: recombinant human βig-h3 protein βig-h3 His-β-b (truncated βig-h3) (ligand)
chain: WYQRKICGKSTVISYECCPGYEKVPGEKGCPAALPLSNLYETLGVVGSTTTQLYTDRTEKLRPEMEGPGSFTIFAPSNEAWASLPAEVLDSLVSNVNIELLNALRYHMVGRRVLTDELKHGMTLTSMYQNSNIQIHHYPNGIVTVNCARLLKADHHATNGVVHLIDKVISTITNNIQQIIEIEDTFETLRAAVAASGLNTMLEGNGQYTLLAPTNEAFEKIPSETLNRILGDPEALRDLLNNHILKSAMCAEAIVAGLSVETLEGTTLEVGCSGDMLTINGKAIISNKDILATNGVIHYIDELLIPDSAKTLFELAAESDVSTAIDLFRQAGLGNHLSGSERLTLLAPLNSVFKDGTPPIDAHTRNLLRNHIIKDQLASKYLYHGQTLETLGGKKLRVFVYRNSLCIENSCIAAHDKRGRYGTLFTMDRVLTPPMGTVMDVLKGDNRFSMLVAAIQSAGLTETLNREGVYTVFAPTNEAFRALPPRERSRLLGDAKELANILKYHIGDEILVSGGIGALVRLKSLQGDKLEVSLKNNVVSVNKEPVAEPDIMATNGVVHVITNVLQPPANRPQERGDELADSALEI
notes: also called βig-h3 His-1-b; Wild-type; not shown: vector-derived residues / His tag from the pET-29 vector (Ni-NTA purified, detected with His-probe-HRP)
- Kd (αvβ3 integrin [1]): ~0.303 µM
- Kd relative to that of the fas-1 domain of βig-h3 (αvβ3 integrin [2]): 100 fold less

B2: βig-h3 D-IV (recombinant protein containing the fourth fas-1 domain of human βig-h3) (ligand)
chain: MGTVMDVLKGDNRFSMLVAAIQSAGLTETLNREGVYTVFAPTNEAFRALPPRERSRLLGDAKELANILKYHIGDEILVSGGIGALVRLKSLQGDKLEVSLKNNVVSVNKEPVAEPDIMATNGVVHVITNVL
notes: Cloned in pET-29b(+), Ni-NTA purified; also called fas-1 protein
- Kd (αvβ3 integrin [1]): ~30 µM
